The target of assay [1] is human factor Xa (Enzyme Research Laboratories, Inc.) (human) (UniProt P00742). Put plainly: cell-based or functional assay.
Assay [2] has the same target. Put plainly: chromogenic FXa inhibition.
For assay [3] the target is unchanged. In words: chromogenic enzyme inhibition, IC50 corrected for substrate.
For assay [4], the target named is human thrombin (Enzyme Research Laboratories, Inc.) (human) (UniProt P00734). The assay is described as above.

Non-standard residues stand in square brackets, D forms with d. Phe(4-NH2) = Nc1ccc(C[C@H](N)C(=O)O)cc1; 2Nal = N[C@@H](Cc1ccc2ccccc2c1)C(=O)O; Hyp = O=C(O)[C@@H]1C[C@@H](O)CN1; Chg = N[C@H](C(=O)O)C1CCCCC1

Sequence of human factor Xa (Enzyme Research Laboratories, Inc.) (human) (P00742 41-179 limits assumed, chain 1 of 2): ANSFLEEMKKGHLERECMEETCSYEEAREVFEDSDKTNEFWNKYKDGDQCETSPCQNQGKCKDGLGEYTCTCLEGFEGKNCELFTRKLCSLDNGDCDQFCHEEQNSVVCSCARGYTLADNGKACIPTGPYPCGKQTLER
Sequence of human factor Xa (Enzyme Research Laboratories, Inc.) (human) (P00742 235-488 limits assumed, chain 2 of 2): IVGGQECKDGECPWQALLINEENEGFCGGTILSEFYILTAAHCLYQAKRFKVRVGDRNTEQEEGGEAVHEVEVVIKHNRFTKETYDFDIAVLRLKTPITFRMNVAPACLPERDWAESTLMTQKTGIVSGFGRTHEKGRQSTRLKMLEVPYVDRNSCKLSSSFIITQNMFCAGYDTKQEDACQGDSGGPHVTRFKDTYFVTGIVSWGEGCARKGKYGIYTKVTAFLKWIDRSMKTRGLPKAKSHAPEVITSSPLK

On to Ac-Y-Chg-R-NH2 (peptide), for which, in assay [1], the EC50 (concentration giving 50% inhibition of coagulation), in vitro dilute prothrombin time assay, pooled human plasma was 0.0025 µM. Further, in assay [2], the Ki was less than 100 µM.

“TENSTOP (N-alpha-tosyl-Gly-p-amidinophenylalanine methyl ester)”: the inhibition constant (Ki) in assay [3] and in assay [4] was 2 µM each time.

As for “Ac-pAph-Chg-NH-[1-(1-methyl-4-pyridinium)-2-hydroxy]ethyl (peptide)”, the Ki in assay [2] is less than 100 µM.

Turning to “(2-benzofuroyl)-pAph-Chg-PalMe(3)-NH2 (peptide)”, in assay [2], the Ki is less than 100 µM.

In assay [2], “Ac-Y-I-R-L-P-Dab(Ac-Y-I-R-L-P(G-A)6)-OH (peptide)” came in with an inhibition constant (Ki) of less than 100 µM.

Ac-F(pNH2)-Chg-R-NH2 (peptide) returned an inhibition constant (Ki) in assay [2] of less than 100 µM.

Substance “Ac-pAph-Chg-PalMe(3)-NH-(4-carboxycyclohexyl) methyl (peptide)” registered an inhibition constant Ki in assay [2] of less than 100 µM.

On to “Ac-pAph-Chg-PalMe(3)-NH(1-methoxycarbonyl)-1-cyclohexyl (peptide)”, for which, in assay [2], the inhibitory constant (Ki) was less than 100 µM.

As to Ac-Y-Chg-R-NH-CH2CH2-O-CH3 (peptide), in assay [2], the inhibition constant Ki is less than 100 µM.

In turn, Nal(2)-Chg-R-L-P-NH2 (peptide) yielded an inhibition constant (Ki) in assay [2] of less than 100 µM.

For the substance Ac-[2Nal][Chg]RLP-NH2, the EC50 (concentration giving 50% inhibition of coagulation), in vitro dilute prothrombin time assay, pooled human plasma in assay [1] came to 0.14 µM. In assay [2], this substance gave an inhibition constant (Ki) of less than 100 µM.

As to “Ac-D-pAph-Chg-Arg-N(carboxymethyl)Gly-Pro-NH2 (peptide)”, the Ki in assay [2] was less than 100 µM.

Substance (iBu)Y-I-R-OH (peptide) came in with an inhibitory constant (Ki) in assay [2] of less than 100 µM.

On to “Ac-pAph-Chg-Pal(3)(CH2COOH)-NH2 (peptide)”, for which the Ki in assay [2] is less than 100 µM.

The substance “Ac-pAph-Chg-NH[4-(1-methyl-pyridinium)methyl] (peptide)” registered a Ki in assay [2] of less than 100 µM.

“Ac-pAph-Chg-PalMe(3)-Pen(CH2COOH)-Pro-NH2 (peptide)” registered a Ki in assay [2] of less than 100 µM.

In assay [2], Ac-Y-Chg-R-NH-Bzl-4-OMe (peptide) registered a Ki of less than 100 µM.

In assay [2], “(2-benzofuroyl)-Phe(pNH2)-Chg-Dab(CH═N(CH3)2)-Leu-Pro-NH2 (peptide)” registered a Ki of less than 100 µM.

Consider Ac-pAph-Chg-Arg-Leu-OH (peptide), for which the inhibition constant (Ki) in assay [2] is less than 100 µM.

Turning to y-Chg-R-NH2 (peptide), the Ki in assay [2] is less than 100 µM.

In assay [2], Ac-pAph-Chg-Arg-Gla-Pro-NH2 (peptide) came in with a Ki of less than 100 µM.

Ac-Y-Nva-R-NH2 (peptide): the inhibition constant (Ki) in assay [2] was less than 100 µM.

Consider Ac-Y-I-R-Nle-Hyp (peptide), for which the Ki in assay [2] is less than 100 µM.

Regarding Ac-(nBu)Y-I-R-NH2 (peptide), the inhibition constant Ki in assay [2] is less than 100 µM.

In turn, Ac-(iBu)Y-Chg-R-NH2 (peptide) came in with a Ki in assay [2] of less than 100 µM.

Take y-Chg-R-L-NH2 (peptide): the Ki in assay [2] was less than 100 µM.

For the substance Ac-mAph-Chg-Arg-Leu-Pro-NH2 (peptide), in assay [2], the inhibitory constant (Ki) is less than 100 µM.

“Ac-pAph-Chg-Arg-N[1(1,3-dicarboxy)propyl)]Gly-Pro-NH2 (peptide)” registered a Ki in assay [2] of less than 100 µM.

Take Ac-(4-MeO-Bzl)Y-I-R-NH2 (peptide): in assay [2], the Ki was less than 100 µM.

Consider “Ac-Y-Chg-R(NO2)-{ψ(CH2NH)}-L-NH2 (peptide)”, for which the inhibition constant (Ki) in assay [2] is less than 100 µM.

In turn, Ac-D-pAph-Chg-Arg-Gla-Pro-NH2 (peptide) showed an inhibition constant Ki in assay [2] of less than 100 µM.

On to “(pOH)C6H4-CH2CH2(OH)-CO-I-R-L-Sar-NH2 (peptide)”, for which, in assay [2], the inhibitory constant (Ki) was less than 100 µM.

For the substance “Ac-Y-Chg-R-NH-CH2(2-(6-EtO)benzylthiazolyl) (peptide)”, the Ki in assay [2] was less than 100 µM.

With “(2-pyridoyl)-pAph-Chg-PalMe(3)-NH2 (peptide)”, the Ki in assay [2] is less than 100 µM.

Substance Ac-(iBu)F(pNH2)-Chg-R-NH2 (peptide) showed a Ki in assay [2] of less than 100 µM.

Pgl(OH)-I-R-L-NH2 (peptide) returned a Ki in assay [2] of less than 100 µM.

With “(2-quinolinoyl)-pAph-Chg-PalMe(3)-NH2 (peptide)”, in assay [2], the Ki was less than 100 µM.

Take y-I-R-NH2 (peptide): the Ki in assay [2] is less than 100 µM.

Regarding Tfa-Y-Chg-R-NH2 (peptide), the Ki in assay [2] is less than 100 µM.

Regarding “(2-furoyl)-pAph-Chg-NH-1-[3(N-methylpyridyl)]-1-(methylacetate)ethyl (peptide)”, the Ki in assay [2] was less than 100 µM.

“3-phenoxyproprionic-Y-Chg-R-NH2 (peptide)” showed a Ki in assay [2] of less than 100 µM.

In the case of “Ac-pAph-Chg-Arg-(HOOC-CH2)Gly-Pro-NH2 (peptide)”, the inhibition constant (Ki) in assay [2] is less than 100 µM.

Substance Ac-Y-Chg-R-NH-CH2CH2-N-(CH3)2 (peptide) came in with a Ki in assay [2] of less than 100 µM.

The substance Tfa-(iBu)Y-I-PalMe(3)-NH2 (peptide) displayed a Ki in assay [2] of less than 100 µM.

In assay [2], Alloc-pAph-Chg-PalMe(3)-NH2 (peptide) displayed a Ki of less than 100 µM.

In assay [2], Ac-Y-Chg-R-NH-CH2-Chx (peptide) gave an inhibition constant (Ki) of less than 100 µM.

Regarding Ac-pAph-Chg-PalMe(3)-NH2 (peptide), the inhibition constant Ki in assay [2] was less than 100 µM.

For “Ac-(3,5,5-Me-3-nHexyl)Y-I-R-NH2 (peptide)”, the Ki in assay [2] is less than 100 µM.

“Ac-D-pAph-Chg-Arg-N[1(1,3-dicarboxy)propyl)]Gly-Pro-NH2 (peptide)”: the inhibition constant Ki in assay [2] is less than 100 µM.

The substance “Ac-Pal(4)Me-Chg-Pal(4)Me-Leu-Pro-NH2 (peptide)” had an inhibitory constant (Ki) in assay [2] of less than 100 µM.

Turning to “(2-thienylacetyl)-pAph-Chg-NH-(4-trimethyl-ammonium benzyl) (peptide)”, the Ki in assay [2] is less than 100 µM.

For Ac-Y-I-R-NH-CH2CH2-N(CH3)2 (peptide), in assay [2], the Ki is less than 100 µM.

As to Ac-[Phe(4-NH2)][Chg]RL[Hyp]-NH2, the Ki in assay [2] was less than 100 µM.

Substance “(2-furoyl)-pAph-Chg-NH-(4-trimethyl-ammonium benzyl) (peptide)” gave an inhibition constant (Ki) in assay [2] of less than 100 µM.

Substance “Ac-D-pAph-Chg-Arg-(carboxyethyl)Gly-Pro-NH2 (peptide)” registered a Ki in assay [2] of less than 100 µM.

Consider “Ac-D-pAph-Chg-PalMe(3)-Leu-Pro-NH2 (peptide)”, for which the Ki in assay [2] is less than 100 µM.

As to Ph-C(NOCH2Ph)-CO-I-R-NH2 (peptide), in assay [2], the inhibition constant (Ki) was less than 100 µM.

Ac-Y-I-R-N(Me)O-CH3 (peptide) yielded a Ki in assay [2] of less than 100 µM.

For Ac-(iBu)Y-I-R-NH2 (peptide), the Ki in assay [2] is less than 100 µM.

Substance Ac-Y-Chg-R-NH-CH2CH2-COOH (peptide) returned a Ki in assay [2] of less than 100 µM.

As to “(Alloc)-pAph-Chg-Arg-Leu-Pro-NH2 (peptide)”, the Ki in assay [2] is less than 100 µM.

What is called Ki is a measure of affinity in units of concentration, obtained from inhibition or displacement. Low values mean higher affinity, high ones lower affinity.

The values above are taken from patent US6759384.
